Measurements published in US20150023988A1.
Where two headings read alike, the source gives them in different places.

Legend:
Assay in all cases: cell-based or functional assay
[1] = target: human voltage-gated sodium channel Nav1.5 (human) (UniProt Q14524)
[2] = target: human voltage-gated sodium channel Nav1.7 (human) (UniProt Q15858)
[3] = target: human voltage-gated sodium channel Nav1.4 (human) (UniProt P35499)
[4] = target: human voltage-gated sodium channel Nav1.5 (human) (UniProt Q14524); remark: listed apart in the source
[5] = target: human voltage-gated sodium channel Nav1.7 (human) (UniProt Q15858); remark: listed apart in the source
[6] = target: human voltage-gated sodium channel Nav1.4 (human) (UniProt P35499); remark: listed apart in the source
[7] = target: human voltage-gated sodium channel Nav1.3 (human) (UniProt Q9NY46)

human voltage-gated sodium channel Nav1.5 (human), sequence (Q14524 whole entry): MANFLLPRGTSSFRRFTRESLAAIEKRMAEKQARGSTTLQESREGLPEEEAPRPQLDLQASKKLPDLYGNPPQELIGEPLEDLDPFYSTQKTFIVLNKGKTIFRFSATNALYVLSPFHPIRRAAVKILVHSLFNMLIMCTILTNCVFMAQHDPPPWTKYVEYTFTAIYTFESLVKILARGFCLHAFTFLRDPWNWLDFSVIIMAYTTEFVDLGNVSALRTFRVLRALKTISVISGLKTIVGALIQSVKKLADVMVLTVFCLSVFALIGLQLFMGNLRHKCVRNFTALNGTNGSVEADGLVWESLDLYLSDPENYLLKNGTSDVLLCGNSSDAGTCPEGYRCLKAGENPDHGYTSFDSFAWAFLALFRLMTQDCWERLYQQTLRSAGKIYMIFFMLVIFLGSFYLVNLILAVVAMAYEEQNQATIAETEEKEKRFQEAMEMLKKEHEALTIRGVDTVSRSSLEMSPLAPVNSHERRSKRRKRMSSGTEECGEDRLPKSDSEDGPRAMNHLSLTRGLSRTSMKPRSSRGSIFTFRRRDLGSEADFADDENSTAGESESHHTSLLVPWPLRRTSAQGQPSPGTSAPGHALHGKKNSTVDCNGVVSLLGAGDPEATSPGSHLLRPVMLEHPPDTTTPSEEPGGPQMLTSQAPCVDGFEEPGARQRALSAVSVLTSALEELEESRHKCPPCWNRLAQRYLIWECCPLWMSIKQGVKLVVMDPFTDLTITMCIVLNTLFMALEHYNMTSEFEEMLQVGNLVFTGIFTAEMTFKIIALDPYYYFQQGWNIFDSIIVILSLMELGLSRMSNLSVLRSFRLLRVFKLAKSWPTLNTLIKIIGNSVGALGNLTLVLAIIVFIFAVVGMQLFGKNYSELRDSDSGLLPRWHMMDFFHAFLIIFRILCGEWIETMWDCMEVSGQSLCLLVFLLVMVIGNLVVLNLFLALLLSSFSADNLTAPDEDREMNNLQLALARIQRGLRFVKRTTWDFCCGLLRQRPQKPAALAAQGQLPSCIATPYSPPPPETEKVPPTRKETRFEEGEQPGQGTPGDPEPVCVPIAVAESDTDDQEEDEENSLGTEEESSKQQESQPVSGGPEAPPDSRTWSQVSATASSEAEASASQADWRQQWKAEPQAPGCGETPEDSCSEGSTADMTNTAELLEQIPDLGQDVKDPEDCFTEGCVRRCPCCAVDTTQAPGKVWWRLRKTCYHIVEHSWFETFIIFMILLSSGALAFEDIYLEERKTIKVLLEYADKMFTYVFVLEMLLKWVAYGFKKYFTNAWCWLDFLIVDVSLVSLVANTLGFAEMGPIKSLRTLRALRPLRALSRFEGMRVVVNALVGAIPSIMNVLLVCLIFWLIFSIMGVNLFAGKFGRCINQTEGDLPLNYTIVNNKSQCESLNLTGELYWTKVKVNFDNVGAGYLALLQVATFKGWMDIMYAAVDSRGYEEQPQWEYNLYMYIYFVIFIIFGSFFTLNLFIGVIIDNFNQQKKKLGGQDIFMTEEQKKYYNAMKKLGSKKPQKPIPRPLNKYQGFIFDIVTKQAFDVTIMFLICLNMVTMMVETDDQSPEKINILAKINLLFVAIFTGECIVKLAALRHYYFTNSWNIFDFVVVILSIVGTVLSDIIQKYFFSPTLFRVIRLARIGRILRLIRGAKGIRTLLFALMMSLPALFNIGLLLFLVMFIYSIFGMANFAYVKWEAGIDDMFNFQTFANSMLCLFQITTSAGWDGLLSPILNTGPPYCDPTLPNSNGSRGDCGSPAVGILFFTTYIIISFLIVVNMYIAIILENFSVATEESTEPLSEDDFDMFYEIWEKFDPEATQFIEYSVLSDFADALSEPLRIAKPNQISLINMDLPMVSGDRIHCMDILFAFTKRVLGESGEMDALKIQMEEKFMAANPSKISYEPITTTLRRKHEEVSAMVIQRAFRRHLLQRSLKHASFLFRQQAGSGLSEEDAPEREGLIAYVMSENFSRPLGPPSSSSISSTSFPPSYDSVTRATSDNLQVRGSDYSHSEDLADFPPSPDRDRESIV
human voltage-gated sodium channel Nav1.7 (human), sequence (Q15858 whole entry): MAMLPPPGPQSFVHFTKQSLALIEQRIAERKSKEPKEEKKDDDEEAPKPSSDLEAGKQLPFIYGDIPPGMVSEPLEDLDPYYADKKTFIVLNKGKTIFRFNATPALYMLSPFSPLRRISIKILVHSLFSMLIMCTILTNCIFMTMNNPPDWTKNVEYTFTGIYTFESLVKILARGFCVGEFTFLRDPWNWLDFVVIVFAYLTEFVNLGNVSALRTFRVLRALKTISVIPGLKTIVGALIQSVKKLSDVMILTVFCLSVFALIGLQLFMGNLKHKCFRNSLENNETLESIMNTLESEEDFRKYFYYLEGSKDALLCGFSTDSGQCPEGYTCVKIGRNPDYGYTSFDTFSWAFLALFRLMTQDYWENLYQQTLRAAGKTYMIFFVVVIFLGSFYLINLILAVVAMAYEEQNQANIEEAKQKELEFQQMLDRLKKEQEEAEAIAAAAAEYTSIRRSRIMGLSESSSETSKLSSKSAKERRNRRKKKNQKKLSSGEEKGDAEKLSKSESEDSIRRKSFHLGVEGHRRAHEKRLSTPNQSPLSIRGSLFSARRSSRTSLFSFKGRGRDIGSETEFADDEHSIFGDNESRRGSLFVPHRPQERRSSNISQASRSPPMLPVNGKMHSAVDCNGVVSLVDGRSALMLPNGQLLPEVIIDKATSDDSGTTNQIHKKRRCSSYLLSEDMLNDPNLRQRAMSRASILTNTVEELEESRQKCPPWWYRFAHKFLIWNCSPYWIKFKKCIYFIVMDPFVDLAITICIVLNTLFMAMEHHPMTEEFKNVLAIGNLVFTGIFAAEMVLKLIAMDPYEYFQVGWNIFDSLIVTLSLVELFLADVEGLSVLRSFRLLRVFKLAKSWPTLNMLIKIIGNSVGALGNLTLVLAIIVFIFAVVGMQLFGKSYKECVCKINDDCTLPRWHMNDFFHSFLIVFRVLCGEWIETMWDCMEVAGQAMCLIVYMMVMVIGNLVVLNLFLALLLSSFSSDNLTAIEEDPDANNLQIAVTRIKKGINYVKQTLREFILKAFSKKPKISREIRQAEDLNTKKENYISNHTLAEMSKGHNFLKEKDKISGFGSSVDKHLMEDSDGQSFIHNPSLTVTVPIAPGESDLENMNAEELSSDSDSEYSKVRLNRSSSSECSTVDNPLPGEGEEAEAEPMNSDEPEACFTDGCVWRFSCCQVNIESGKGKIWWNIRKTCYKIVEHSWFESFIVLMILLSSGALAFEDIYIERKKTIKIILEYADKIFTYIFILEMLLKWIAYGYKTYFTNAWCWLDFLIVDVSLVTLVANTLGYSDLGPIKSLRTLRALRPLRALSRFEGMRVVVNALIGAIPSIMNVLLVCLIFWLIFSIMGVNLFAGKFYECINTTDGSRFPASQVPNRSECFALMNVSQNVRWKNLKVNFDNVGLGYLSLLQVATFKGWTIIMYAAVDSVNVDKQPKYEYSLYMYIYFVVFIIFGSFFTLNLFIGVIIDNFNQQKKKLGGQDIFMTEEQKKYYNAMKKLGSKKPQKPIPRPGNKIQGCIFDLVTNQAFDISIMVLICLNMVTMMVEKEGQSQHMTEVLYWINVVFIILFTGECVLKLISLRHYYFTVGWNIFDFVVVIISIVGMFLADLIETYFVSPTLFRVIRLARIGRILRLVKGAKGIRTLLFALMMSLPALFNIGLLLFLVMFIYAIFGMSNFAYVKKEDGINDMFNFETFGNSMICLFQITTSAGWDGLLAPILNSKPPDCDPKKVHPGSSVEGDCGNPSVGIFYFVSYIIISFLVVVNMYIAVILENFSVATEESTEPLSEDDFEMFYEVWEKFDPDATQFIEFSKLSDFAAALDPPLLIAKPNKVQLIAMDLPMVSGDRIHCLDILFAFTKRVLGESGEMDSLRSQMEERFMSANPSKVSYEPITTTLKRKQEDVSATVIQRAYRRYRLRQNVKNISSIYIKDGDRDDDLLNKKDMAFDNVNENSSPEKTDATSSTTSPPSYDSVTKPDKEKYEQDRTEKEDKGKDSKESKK

[Nle6; Pra11; Glu20; Tyr28]JzTx-V(1-29) (peptide)
PX hNav1.5 Tonic IC50 [1]: 2.46 µM | PX hNav1.7 Tonic IC50 [2]: 0.00128 µM | PX hNav1.4 Tonic IC50 [3]: 0.825 µM

[Nle6; Pra14; Glu20; Tyr28]JzTx-V(1-29) (peptide)
PX hNav1.5 Tonic IC50 [1]: 3.69 µM | PX hNav1.7 Tonic IC50 [2]: 0.00176 µM | PX hNav1.4 Tonic IC50 [3]: 0.707 µM

[Nle6;Pra11;Glu20;Trp29]JzTx-V(1-29) (peptide)
IC50 (IonWorks Quattro) [2]: 0.026 µM

[Cit7;Glu20;Tyr28]JzTx-V(1-29) (peptide)
IC50 (IonWorks Quattro) [4]: > 7 µM | IC50 (IonWorks Quattro) [5]: 5.8 µM | IC50 (IonWorks Quattro) [6]: > 7 µM | IC50 (IonWorks Quattro) [7]: > 7 µM

[Nle6; Pra11; Glu20]JzTx-V(1-29) (peptide)
PX hNav1.5 Tonic IC50 [1]: 3.55 µM | PX hNav1.7 Tonic IC50 [2]: 0.0184 µM | PX hNav1.4 Tonic IC50 [3]: 4.22 µM

[Nva7;Glu20;Tyr28]JzTx-V(1-29) (peptide)
IC50 (IonWorks Quattro) [4]: > 7 µM | IC50 (IonWorks Quattro) [5]: 4.5 µM | IC50 (IonWorks Quattro) [6]: > 7 µM | IC50 (IonWorks Quattro) [7]: > 7 µM

[Nle6; AzK11; Glu20; Trp29]JzTx-V(1-29) (peptide)
PX hNav1.7 Tonic IC50 [2]: 0.435 µM

[Nle6; Pra14; Glu20]JzTx-V(1-29) (peptide)
PX hNav1.5 Tonic IC50 [1]: 4.57 µM | PX hNav1.7 Tonic IC50 [2]: 0.00716 µM | PX hNav1.4 Tonic IC50 [3]: 1.66 µM
